Experimental data as given in patent publication US11407988B2, “Composition and uses thereof” (priority 2015, dated 2022).
Values joined by “and” are separate entries in the source; they are usually repeats but may differ in a detail not shown here. Equal entries are not always repeated. Where two headings read alike, the source gives them in different places. Where a SMILES comes first, the peptide text is derived from it. [ ]: non-standard residue; d: D form. The star is where a group is joined. Sta = CC(C)C[C@H](N)[C@@H](O)CC(=O)O; Isovaleryl = CC(C)CC(=O)*

Experiments:
[1] = tested on: purified protease of Thermoactinomyces sp. 16 (protease 16); type: biochemical; details: for Inhibition of the enzyme (in words): 10 mM inhibitor
BSA (1%, w/v) [2] = assay: Effect of pH on protease activity of original and recombinant proteinase 16; type: biochemical; details: 0.1M Universal buffer, 30 min, 40 C
[3] = molecular target: PrP^Sc, RML scrapie strain (Mus musculus, UniProt P04925); details: pH 7
[4] = molecular target: PrP (PrP^C and PrP^Sc) in N2a22L20 lysate, 22 L scrapie strain (Mus musculus, UniProt P04925); details: pH 7
BSA (1%, w/v) [5] = assay: Effect of pH and temperature on protease activity
[6] = molecular target: PrP (PrP^C and PrP^Sc) in GTK lysate, chandler scrapie isolate (Mus musculus, UniProt P04925); details: pH 7
[7] = tested on: bovine serum albumin (BSA); assay: Protease assay of purification steps of protease 16 (BSA, 0.1M CAPS pH 11.0, 40° C.); type: biochemical
Excerpt: The secreted protease was purified from cell free supernatant by (NH4)2SO4 (0-60%) fractionation followed by affinity chromatography on Bacitricin-Sepharose 4B according to the quantities shown in Table 3 below.
The first step was ammonium sulphate (0-60%) fractionation. To express the final ammonium sulphate concentration as % ammonium sulphate saturation the Green and Hughes calculations were used. The precipitate obtained after fractionation was suspended in 0.02M HEPES buffer, pH 7.0 and was dialysed against water for 24 h. The second step used was affinity chromatography on bacitracin-Sepharose 4B using a modification of the method of Stepanov and Rudenskaya. Bacitracin-Sepharose 4B was equilibrated with 0.04M Tris/HCL, pH 7.9. Enzyme solution in 0.04M Tris/HCL pH 7.9 was applied to the column and the column was washed with the same buffer to remove all unbound protein. […] The propan-2-ol and NaCl were removed from the protease solution by dialysis.

PrP^Sc, BSE strain 301V = PrP^Sc, BSE strain 301V (Mus musculus, UniProt P04925); details: pH 7
[8] = molecular target: pK resistant prion material (PrP^Sc) (Mus musculus, UniProt P04925)
[9] = molecular target: PrP (PrP^C and PrP^Sc) in GT22L lysate, 22 L scrapie strain (Mus musculus, UniProt P04925); details: pH 7
[10] = 10 mM reagent, purified protease 16

Molecule: CC(=O)N[C@@H](CC(C)C)C(=O)N[C@@H](CC(C)C)C(=O)N[C@H](C=O)CCCNC(=N)N [Leupeptin]
- Residual protease activity (% of control, no reagent) (10 mM) [1]: 56.8 % of control, no reagent

Molecule: CC(C)C[C@H](NC(=O)[C@@H](O)[C@H](N)Cc1ccccc1)C(=O)O [Bestatin]
- Residual protease activity (% of control, no reagent) (10 mM) [1]: 92.6 % of control, no reagent

Molecule: O=C(O)CN(CCN(CC(=O)O)CC(=O)O)CC(=O)O [Ethylenediaminetetraacetic acid]
- Residual protease activity (% of control, no reagent) (10 mM) [1]: 99.6 % of control, no reagent

Molecule: Cl.NCCc1ccc(S(=O)(=O)F)cc1 [Pefabloc]
- Inhibition of the enzyme (in words) [1]: significantly inhibited
- Residual protease activity (% of control, no reagent) (10 mM) [1, 10]: 2.9 % of control, no reagent

Molecule: CC(C)CC(=O)N[C@H](C(=O)N[C@H](C(=O)N[C@@H](CC(C)C)[C@@H](O)CC(=O)N[C@@H](C)C(=O)N[C@@H](CC(C)C)[C@@H](O)CC(=O)O)C(C)C)C(C)C [Pepstatin] (Isovaleryl-VV[Sta]A[Sta]-OH)
- Residual protease activity (% of control, no reagent) (10 mM) [1]: 97.6 % of control, no reagent

Molecule: O=S(=O)(F)Cc1ccccc1 [Phenylmethylsulfonyl fluoride]
- Inhibition of the enzyme (in words) [1]: significantly inhibited
- Residual protease activity (% of control, no reagent) (10 mM) [1, 10]: 5.4 % of control, no reagent

B1: recombinant Thermitase 16: protease 16 cloned and heterologously expressed in Lactococcus lactis strain MG1363 (L. lactis strain 16), heat activated (protein)
chain: YTPNDPYFSSRQYGPQKIQAPQAWDIAEGSGVKIAIVDTGVQSNHPDLAGKVVGGWDFVDNDSTPQDGNGHGTHCAGIAAAVTNNSTGIAGTAPKASILAVRVLDNSGSGTWTAVANGITYAADQGAKVISLSLGGTVGNSGLQQAVDYAWNKGSVVVAAAGNAGNTAPNYPAYYSNAIAVASTDQNDNKSSFSTYGSWVDVAAPGSSIYSTYPTSTYASLSGTSMATPHVAGVAGLLASQGRSASNIRAAIENTADKISGTGTYWAKGRVNAYKAVQY
- Activity levels of original versus recombinant protease at the same pHs (BSA (1%, w/v) [2]): little difference in activity levels
- Removal of RML prion strain as detected by western blot [3]: remove all traces of the RML prion strain

B2: protease 16: Thermitase (serine alkaline protease, EC 3.4.21.66) secreted by Thermoactinomyces sp. 16; mature amino acid sequence SEQ ID NO: 1 (protein)
chain: B1 chain
modifications: Thermoactinomyces sp. 16
- Detectable PrP by western blot, antibody 7A12 [4]: complete loss of detectable PrP
- PrP signal by western blot, antibodies 8H4, 11G5 and GE8 [4]: No signal
- pH of optimal activity (BSA (1%, w/v) [5]; BSA in 0.1M Universal buffer, pHs 2.0-12.0): 11.0 and > 8.0
- Temperature of optimal activity (BSA (1%, w/v) [5]; assay at 20-90° C.): 50 °C
- Activity at the assay pH of pH 7.0 (BSA (1%, w/v) [5]; pH 7.0): retains significant activity
- Detectable PrP by western blot, antibody 7A12 [6]: complete loss of detectable PrP
- Specific activity (units/mg protein) ([7]; purification step: (NH4)2SO4 (0-60%) fractionation): 0.79 units/mg protein
- Specific activity (units/mg protein) ([7]; purification step: Bacitricin-Sepharose 4B): 3.56 units/mg protein
- Specific activity (units/mg protein) ([7]; purification step: Cell free supernatant): 0.05 units/mg protein
- Activity levels of original versus recombinant protease at the same pHs (BSA (1%, w/v) [2]): little difference in activity levels
- Removal of RML prion strain as detected by western blot [3]: remove all traces of the RML prion strain
- Time to degrade 301V brain material (PrP^Sc, BSE strain 301V): ≤ 15 min
- Time to degrade 301V from mouse brain homogenate (PrP^Sc, BSE strain 301V): ≤ 15 min
- Detectable prion signal [8]: complete loss of detectable prion signal
- Time to degrade the prion [8]: ≤ 15 min
- Detectable PrP by western blot, antibody 7A12 [9]: complete loss of detectable PrP
